These results are taken from article PMC3492137.

Assay [1] addresses human immunoglobulin G, biotinylated. As to the kind of experiment: microtiter plate dissociation assay (immobilised mutant, hIgG-biotin detected with streptavidin-alkaline phosphatase, A405). The note with it: 2 µg/ml mutant conjugated, 6 µM hIgG-biotin, read off a plot, scale: normalized absorbance at 405 nm.
The target in assay [2] is Fc portion of human immunoglobulin G, biotinylated. Nature of the assay: yeast surface display end-point dissociation assay, flow cytometry (strep-PE). The note with it: dissociation at pH 4.5 for 30 min; parent: est. 0.88; read off a plot; scale: normalized fluorescence.
Setting [3] is: dissociation at pH 2.5 for 30 min, parent: est. 0.33.
[4] abbreviates: dissociation at pH 3.5 for 30 min, parent: est. 0.91.
The mark [5] stands for this setting: dissociation at pH 4.5 for 30 min, parent: est. 1.0.

Regarding “Sso7d-hFc with a C-terminal cysteine Sso7d-ev-hFc”, the response in assay [1] (setting [3]) came out at 0.35; in assay [1] (setting [4]) it was 0.87; in assay [1] (setting [5]), 1.
Regarding “Sso7d-hFc with a C-terminal cysteine Y40H”, the response in assay [1] (setting [3]) came out at 0.33; in assay [1] (setting [4]), 0.79; in assay [1] (setting [5]) it was 1.
Consider “Sso7d-hFc, yeast cell surface fusion Sso7d-ev-hFc”, for which the response in assay [2] is 0.06.
Still for that read-out and setting: to “Sso7d-hFc, yeast cell surface fusion Y40H” belongs 0.1.
